Patent EP4653533A1 (JCR Pharmaceuticals Co., Ltd., dated 2025)
Positions count from the first letter of the chain named. Where two headings read alike, the source gives them in different places. Values belong to the binder of their own block, whether it stands above or below them.

What was measured:
[1] = target: T1, recombinant monkey TfR (extracellular region of cynomolgus monkey transferrin receptor, N-terminal histidine … (cynomolgus monkey (Macaca fascicularis), UniProt Q5RDH6 89-760 (Pongo abelii entry))); test: calculated from BLI KD values; reference is the KD of the same peptide for hTfR
T1 construct: also called r monkey TfR; monkey TfR-ECD (Histag); not shown: histidine tag at the N-terminus
T1 chain: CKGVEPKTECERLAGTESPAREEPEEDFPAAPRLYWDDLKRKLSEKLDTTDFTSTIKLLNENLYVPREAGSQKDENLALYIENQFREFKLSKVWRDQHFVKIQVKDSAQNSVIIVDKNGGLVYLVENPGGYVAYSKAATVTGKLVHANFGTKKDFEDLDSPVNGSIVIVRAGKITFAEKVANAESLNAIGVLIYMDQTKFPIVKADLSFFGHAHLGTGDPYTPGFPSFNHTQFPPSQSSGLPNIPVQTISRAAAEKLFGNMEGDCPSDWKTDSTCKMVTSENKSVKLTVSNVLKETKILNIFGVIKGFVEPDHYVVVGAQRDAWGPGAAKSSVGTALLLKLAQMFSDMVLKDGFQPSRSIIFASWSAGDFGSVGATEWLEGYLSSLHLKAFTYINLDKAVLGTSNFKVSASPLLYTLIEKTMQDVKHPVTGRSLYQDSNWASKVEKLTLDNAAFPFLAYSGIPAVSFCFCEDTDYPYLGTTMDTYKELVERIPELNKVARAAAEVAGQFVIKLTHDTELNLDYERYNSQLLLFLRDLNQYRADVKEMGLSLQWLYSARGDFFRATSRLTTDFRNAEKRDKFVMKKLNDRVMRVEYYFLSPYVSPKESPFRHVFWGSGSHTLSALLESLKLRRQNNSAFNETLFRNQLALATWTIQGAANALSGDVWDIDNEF

[2] = target: T2, recombinant mouse TfR (extracellular region of mouse transferrin receptor, N-terminal histidine tag) (mouse, UniProt Q62351 89-763); test: as above
T2 construct: also called r mouse TfR; mouse TfR-ECD (Histag); not shown: histidine tag at the N-terminus
T2 sequence (Q62351 89-763): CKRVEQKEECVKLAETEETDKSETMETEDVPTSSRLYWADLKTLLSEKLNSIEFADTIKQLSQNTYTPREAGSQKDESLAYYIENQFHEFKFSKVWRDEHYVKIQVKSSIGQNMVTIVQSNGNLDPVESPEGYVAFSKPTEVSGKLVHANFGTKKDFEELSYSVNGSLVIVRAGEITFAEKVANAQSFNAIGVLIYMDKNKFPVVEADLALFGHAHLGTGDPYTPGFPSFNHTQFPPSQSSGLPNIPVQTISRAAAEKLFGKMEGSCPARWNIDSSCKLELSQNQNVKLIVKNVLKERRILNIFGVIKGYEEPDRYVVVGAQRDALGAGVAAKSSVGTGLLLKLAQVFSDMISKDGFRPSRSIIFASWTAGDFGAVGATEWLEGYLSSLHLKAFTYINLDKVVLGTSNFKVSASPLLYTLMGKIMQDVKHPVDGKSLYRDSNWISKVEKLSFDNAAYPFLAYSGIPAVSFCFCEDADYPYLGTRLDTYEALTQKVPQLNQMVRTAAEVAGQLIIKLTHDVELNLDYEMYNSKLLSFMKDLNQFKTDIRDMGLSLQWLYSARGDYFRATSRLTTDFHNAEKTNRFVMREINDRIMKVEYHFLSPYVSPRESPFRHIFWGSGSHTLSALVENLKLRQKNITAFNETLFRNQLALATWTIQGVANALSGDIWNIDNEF

[3] = target: T1, recombinant monkey TfR (extracellular …); test: BLI (OctetRED96), His-tagged TfR ECD on Ni-NTA biosensor, peptide in solution
[4] = target: T1, recombinant monkey TfR (extracellular …); test: as above
[5] = target: T3, recombinant hTfR (extracellular region of human transferrin receptor, N-terminal histidine tag) (human, UniProt P02786 89-760); test: as above
T3 construct: also called rhTfR; human TfR; not shown: histidine tag at the N-terminus

[6] = target: T2, recombinant mouse TfR (extracellular …); test: as above

relative value of the dissociation constant (KD with hTfR set to 1) [1]: 8.84 fold
relative value of the dissociation constant (KD with hTfR set to 1) [2]: 5.7 fold
Kd [3]: 8.24 nM
Kd [4]: 82.4 nM
Kd [5]: 0.932 nM
Kd [6]: 5.31 nM
B1: hTfR affinity peptide 1 (VHH)
VHH: QVQLVESGGGLVQPGESLRLSCAASGSIFDIYVMRWYRQAPGKQREWVASIYDGGRSDYEAVVKGRFIISRDNAKNTGYLQMNSLKPEDTAVYFCNVLIYAGRNYWGQGTQVTVSS
notes: also called Clone 1; VHH(1)

relative value of the dissociation constant (KD with hTfR set to 1) [1]: 3.95 fold
relative value of the dissociation constant (KD with hTfR set to 1) [2]: 1.31 fold
Kd [4]: 17.4 nM
Kd [5]: 4.4 nM
Kd [6]: 5.75 nM
B2: hTfR affinity peptide 3 (VHH)
VHH: B1 VHH with L20I, E60V, A61N, I68T, Y79D, I99T, A101P
notes: It says only that the purified product was obtained in the same manner as peptide 1; also called Clone 2; VHH(3)
